# Data as given in patent US10487147B2, “Anti-PD-L1 antibodies and uses thereof” (Merck Patent GmbH, priority 2011, dated 2019).
# Test system: not listed separately
# Experiment: Fluorescence monitored thermal unfolding assay of wild type and mutant PD-L1 proteins
# Type: physicochemical
# Conditions: temperature midpoint of fluorescently monitored thermal denaturation of the PD-L1 antigen protein
# Description: As the temperature increases, thermal denaturation of the protein exposes the hydrophobic core residues and this can be monitored by an increase in fluorescence of the dye. […] The data ware fit to equation 1 (adapted from Bullock, A. N. et al. Thermodynamic stability of wild-type and mutant p53 core domain. PNAS 94, 14338-14342 (1997)) to determine the temperature at the inflection point of the curve (T1/2).
row,Molecule,T1/2
1,S80E: PD-L1 point mutant antigen expressed in HEK cells [Antibody S80E],56.8 +/− 4.5 °C
2,A51Q: PD-L1 point mutant antigen expressed in HEK cells [Antibody A51Q],57.3 +/− 0.6 °C
3,D73A: PD-L1 point mutant antigen expressed in HEK cells [Antibody D73A],53.5 +/− 2.1 °C
4,R125A: PD-L1 point mutant antigen expressed in HEK cells [Antibody R125A],51.8 +/− 0.2 °C
5,K46A: PD-L1 point mutant antigen expressed in HEK cells [Antibody K46A],51.6 °C
6,Q107A: PD-L1 point mutant antigen expressed in HEK cells [Antibody Q107A],58.6 +/− 2.0 °C
7,Y56A: PD-L1 point mutant antigen expressed in HEK cells [Antibody Y56A],57.5 +/− 0.7 °C
8,T127A: PD-L1 point mutant antigen expressed in HEK cells [Antibody T127A],51.4 +/− 0.0 °C
9,V111E: PD-L1 point mutant antigen expressed in HEK cells [Antibody V111E],51.6 +/− 0.0 °C
10,K75A: PD-L1 point mutant antigen expressed in HEK cells [Antibody K75A],57.7 +/− 1.8 °C
11,A121R: PD-L1 point mutant antigen expressed in HEK cells [Antibody A121R],54.0 +/− 0.5 °C
12,V76A: PD-L1 point mutant antigen expressed in HEK cells [Antibody V76A],55.7 °C
13,K124A: PD-L1 point mutant antigen expressed in HEK cells [Antibody K124A],53.1 +/− 0.6 °C
14,Y56K: PD-L1 point mutant antigen expressed in HEK cells [Antibody Y56K],55.4 +/− 1.3 °C
15,D26A: PD-L1 point mutant antigen expressed in HEK cells [Antibody D26A],52.8 +/− 0.2 °C
16,L27A: PD-L1 point mutant antigen expressed in HEK cells [Antibody L27A],51.7 +/− 0.5 °C
17,V111A: PD-L1 point mutant antigen expressed in HEK cells [Antibody V111A],50.2 +/− 0.2 °C
18,S117A: PD-L1 point mutant antigen expressed in HEK cells [Antibody S117A],52.7 +/− 0.3 °C
19,T127K: PD-L1 point mutant antigen expressed in HEK cells [Antibody T127K],54.0 °C
20,R82A: PD-L1 point mutant antigen expressed in HEK cells [Antibody R82A],51.2 +/− 0.4 °C

row,Molecule,T1/2
1,D61A: PD-L1 point mutant antigen expressed in HEK cells [Antibody D61A],52.0 °C
2,V68R: PD-L1 point mutant antigen expressed in HEK cells [Antibody V68R],56.0 °C
3,E60A: PD-L1 point mutant antigen expressed in HEK cells [Antibody E60A],50.4 °C
4,A109E: PD-L1 point mutant antigen expressed in HEK cells [Antibody A109E],54.0 °C
5,M115A: PD-L1 point mutant antigen expressed in HEK cells [Antibody M115A],51.4 +/− 0.1 °C
6,K129A: PD-L1 point mutant antigen expressed in HEK cells [Antibody K129A],50.8 +/− 1.2 °C
7,I54A: PD-L1 point mutant antigen expressed in HEK cells [Antibody I54A],57.2 +/− 2.5 °C
8,T20A: PD-L1 point mutant antigen expressed in HEK cells [Antibody T20A],52.5 +/− 0.2 °C
9,D49A: PD-L1 point mutant antigen expressed in HEK cells [Antibody D49A],BP (>49) ° C.
10,S79A: PD-L1 point mutant antigen expressed in HEK cells [Antibody S79A],56.3 +/− 0.9 °C
11,I54K: PD-L1 point mutant antigen expressed in HEK cells [Antibody I54K],57.2 °C
12,H78A: PD-L1 point mutant antigen expressed in HEK cells [Antibody H78A],56.6 +/− 0.6 °C
13,A52R: PD-L1 point mutant antigen expressed in HEK cells [Antibody A52R],55.2 °C
14,R113A: PD-L1 point mutant antigen expressed in HEK cells [Antibody R113A],56.7 °C
15,S80A: PD-L1 point mutant antigen expressed in HEK cells [Antibody S80A],57.0 °C
16,E71A: PD-L1 point mutant antigen expressed in HEK cells [Antibody E71A],52.8 +/− 1.5 °C
17,E58A: PD-L1 point mutant antigen expressed in HEK cells [Antibody E58A],54.6 +/− 0.6 °C
18,K105A: PD-L1 point mutant antigen expressed in HEK cells [Antibody K105A],57.0 +/− 1.5 °C
19,S79E: PD-L1 point mutant antigen expressed in HEK cells [Antibody S79E],60.0 °C
20,E45A: PD-L1 point mutant antigen expressed in HEK cells [Antibody E45A],58.0 °C

# Test system: not listed separately
# Experiment: Analytical size exclusion chromatography of wild type and mutant PD-L1 proteins
# Type: physicochemical
# Conditions: qualitative appearance of the PD-L1 antigen protein on size exclusion chromatography
row,Molecule,SEC
1,Q107A: PD-L1 point mutant antigen expressed in HEK cells [Antibody Q107A],M/T
2,V68R: PD-L1 point mutant antigen expressed in HEK cells [Antibody V68R],M/T

# Test system: MC38 colon carcinoma cells
# Experiment: Combination with low dose cyclophosphamide in MC38 subcutaneous tumor model
# Type: in vivo, mice
# Conditions: CPA 100 mg/kg or A09-246-2 100 μg
# Experimental: Low-dose CPA is known to enhance anti-tumor immune responses through the inhibition of immunosuppressive regulatory T cells. […] Mice were inoculated […] in the right flank with 1×10^6 MC38 colon carcinoma cells. When tumors reached a mean volume of ˜50 mm^3, mice were sorted into treatment groups (N=14) on day 0. […] Using an ELISPOT assay, the effects of treatment on the magnitude of CD8^+ T cell responses directed against the well-characterized p15E tumor antigen were measured.
row,Molecule,"p15E-reactive CD8+ T cells (ELISPOT), single agent [spots]"
1,"O=P1(N(CCCl)CCCl)NCCCO1 (centres unmarked) [CPA, cyclophosphamide]",~100

# Test system: PANC02 cells
# Experiment: Combination with Gemcitabine in the PANC02 orthotopic model
# Conditions: GEM 150 mg/kg or A09-246-2 400 μg per mouse alone
row,Molecule,"survival time, monotherapy"
1,"Nc1ccn([C@@H]2O[C@H](CO)[C@@H](O)C2(F)F)c(=O)n1 [GEM, Gemcitabine]",failed to extend survival time
